Bridges are numbered along the chain shown (N, C = ends). [ ]: non-standard residue; d: D form.
T1: Formyl-Peptide Receptor 1 (UniProt P21462 1-350, limits assumed)
T1 sequence (looked up): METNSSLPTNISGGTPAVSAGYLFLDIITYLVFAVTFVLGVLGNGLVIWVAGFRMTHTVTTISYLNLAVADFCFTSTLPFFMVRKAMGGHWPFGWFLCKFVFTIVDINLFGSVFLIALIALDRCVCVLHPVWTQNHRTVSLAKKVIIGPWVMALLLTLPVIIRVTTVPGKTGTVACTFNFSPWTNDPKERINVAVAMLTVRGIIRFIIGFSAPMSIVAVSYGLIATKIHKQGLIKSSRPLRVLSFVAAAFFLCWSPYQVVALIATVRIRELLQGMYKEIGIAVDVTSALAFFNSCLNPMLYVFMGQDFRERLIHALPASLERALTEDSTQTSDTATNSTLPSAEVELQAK

B1: cyclo(-Ala-His-Ala-Cys-Trp-Gly-^DPro-Trp-Thr-Ile-Cys-Tyr-Gln-Lys-^DPro-Pro-) (peptide)
peptide: cyclo(AHACWG[dP]WTICYQK[dP]P)
modifications: disulfide 4-11
SMILES: CC[C@H](C)[C@@H]1NC(=O)[C@H]([C@@H](C)O)NC(=O)[C@H](Cc2c[nH]c3ccccc23)NC(=O)[C@H]2CCCN2C(=O)CNC(=O)[C@H](Cc2c[nH]c3ccccc23)NC(=O)[C@@H]2CSSC[C@H](NC1=O)C(=O)N[C@@H](Cc1ccc(O)cc1)C(=O)N[C@@H](CCC(N)=O)C(=O)N[C@@H](CCCCN)C(=O)N1CCC[C@@H]1C(=O)N1CCC[C@H]1C(=O)N[C@@H](C)C(=O)N[C@@H](Cc1c[nH]cn1)C(=O)N[C@@H](C)C(=O)N2
B2: cyclo(-Tyr-His-Ala-Cys-Trp-Gly-^DAla-Trp-Thr-Ile-Cys-Tyr-Gln-Lys-^DPro-Pro-) (peptide)
peptide: cyclo(YHACWG[dA]WTICYQK[dP]P)
modifications: disulfide 4-11
SMILES: CC[C@H](C)[C@@H]1NC(=O)[C@H]([C@@H](C)O)NC(=O)[C@H](Cc2c[nH]c3ccccc23)NC(=O)[C@@H](C)NC(=O)CNC(=O)[C@H](Cc2c[nH]c3ccccc23)NC(=O)[C@@H]2CSSC[C@H](NC1=O)C(=O)N[C@@H](Cc1ccc(O)cc1)C(=O)N[C@@H](CCC(N)=O)C(=O)N[C@@H](CCCCN)C(=O)N1CCC[C@@H]1C(=O)N1CCC[C@H]1C(=O)N[C@@H](Cc1ccc(O)cc1)C(=O)N[C@@H](Cc1c[nH]cn1)C(=O)N[C@@H](C)C(=O)N2
B3: cyclo(-Tyr-His-Ala-Cys-Tyr-Gly-^DPro-Trp-Thr-Ile-Cys-Tyr-Gln-Lys-^DPro-Pro-) (peptide)
peptide: cyclo(YHACYG[dP]WTICYQK[dP]P)
modifications: disulfide 4-11
SMILES: CC[C@H](C)[C@@H]1NC(=O)[C@H]([C@@H](C)O)NC(=O)[C@H](Cc2c[nH]c3ccccc23)NC(=O)[C@H]2CCCN2C(=O)CNC(=O)[C@H](Cc2ccc(O)cc2)NC(=O)[C@@H]2CSSC[C@H](NC1=O)C(=O)N[C@@H](Cc1ccc(O)cc1)C(=O)N[C@@H](CCC(N)=O)C(=O)N[C@@H](CCCCN)C(=O)N1CCC[C@@H]1C(=O)N1CCC[C@H]1C(=O)N[C@@H](Cc1ccc(O)cc1)C(=O)N[C@@H](Cc1c[nH]cn1)C(=O)N[C@@H](C)C(=O)N2
B4: cyclo(-Tyr-His-Ala-Cys-His-Gly-^DPro-Trp-Thr-Ile-Cys-Tyr-Thr-Lys-^DPro-Pro-) (peptide)
peptide: cyclo(YHACHG[dP]WTICYTK[dP]P)
modifications: disulfide 4-11
SMILES: CC[C@H](C)[C@@H]1NC(=O)[C@H]([C@@H](C)O)NC(=O)[C@H](Cc2c[nH]c3ccccc23)NC(=O)[C@H]2CCCN2C(=O)CNC(=O)[C@H](Cc2c[nH]cn2)NC(=O)[C@@H]2CSSC[C@H](NC1=O)C(=O)N[C@@H](Cc1ccc(O)cc1)C(=O)N[C@@H]([C@@H](C)O)C(=O)N[C@@H](CCCCN)C(=O)N1CCC[C@@H]1C(=O)N1CCC[C@H]1C(=O)N[C@@H](Cc1ccc(O)cc1)C(=O)N[C@@H](Cc1c[nH]cn1)C(=O)N[C@@H](C)C(=O)N2
B5: cyclo(-Tyr-His-Ala-Cys-His-Gly-^DPro-Trp-Thr-Ile-Cys-Tyr-Glu-Lys-^DPro-Pro-) (peptide)
peptide: cyclo(YHACHG[dP]WTICYEK[dP]P)
modifications: disulfide 4-11
SMILES: CC[C@H](C)[C@@H]1NC(=O)[C@H]([C@@H](C)O)NC(=O)[C@H](Cc2c[nH]c3ccccc23)NC(=O)[C@H]2CCCN2C(=O)CNC(=O)[C@H](Cc2c[nH]cn2)NC(=O)[C@@H]2CSSC[C@H](NC1=O)C(=O)N[C@@H](Cc1ccc(O)cc1)C(=O)N[C@@H](CCC(=O)O)C(=O)N[C@@H](CCCCN)C(=O)N1CCC[C@@H]1C(=O)N1CCC[C@H]1C(=O)N[C@@H](Cc1ccc(O)cc1)C(=O)N[C@@H](Cc1c[nH]cn1)C(=O)N[C@@H](C)C(=O)N2
B6: cyclo(-His-His-Ala-Cys-Trp-Gly-^DPro-Trp-Thr-Ile-Cys-Tyr-Gln-Lys-^DPro-Pro-) (peptide)
peptide: cyclo(HHACWG[dP]WTICYQK[dP]P)
modifications: disulfide 4-11
SMILES: CC[C@H](C)[C@@H]1NC(=O)[C@H]([C@@H](C)O)NC(=O)[C@H](Cc2c[nH]c3ccccc23)NC(=O)[C@H]2CCCN2C(=O)CNC(=O)[C@H](Cc2c[nH]c3ccccc23)NC(=O)[C@@H]2CSSC[C@H](NC1=O)C(=O)N[C@@H](Cc1ccc(O)cc1)C(=O)N[C@@H](CCC(N)=O)C(=O)N[C@@H](CCCCN)C(=O)N1CCC[C@@H]1C(=O)N1CCC[C@H]1C(=O)N[C@@H](Cc1c[nH]cn1)C(=O)N[C@@H](Cc1c[nH]cn1)C(=O)N[C@@H](C)C(=O)N2
B7: cyclo(-Tyr-His-Ala-Cys-Trp-Gly-^DPro-Trp-Thr-Ile-Cys-Tyr-Ala-Lys-^DPro-Pro-) (peptide)
peptide: cyclo(YHACWG[dP]WTICYAK[dP]P)
modifications: disulfide 4-11
SMILES: CC[C@H](C)[C@@H]1NC(=O)[C@H]([C@@H](C)O)NC(=O)[C@H](Cc2c[nH]c3ccccc23)NC(=O)[C@H]2CCCN2C(=O)CNC(=O)[C@H](Cc2c[nH]c3ccccc23)NC(=O)[C@@H]2CSSC[C@H](NC1=O)C(=O)N[C@@H](Cc1ccc(O)cc1)C(=O)N[C@@H](C)C(=O)N[C@@H](CCCCN)C(=O)N1CCC[C@@H]1C(=O)N1CCC[C@H]1C(=O)N[C@@H](Cc1ccc(O)cc1)C(=O)N[C@@H](Cc1c[nH]cn1)C(=O)N[C@@H](C)C(=O)N2
B8: cyclo(-Glu-His-Ala-Cys-Trp-Gly-^DPro-Trp-Thr-Ile-Cys-Tyr-Gln-Lys-^DPro-Pro-) (peptide)
peptide: cyclo(EHACWG[dP]WTICYQK[dP]P)
modifications: disulfide 4-11
SMILES: CC[C@H](C)[C@@H]1NC(=O)[C@H]([C@@H](C)O)NC(=O)[C@H](Cc2c[nH]c3ccccc23)NC(=O)[C@H]2CCCN2C(=O)CNC(=O)[C@H](Cc2c[nH]c3ccccc23)NC(=O)[C@@H]2CSSC[C@H](NC1=O)C(=O)N[C@@H](Cc1ccc(O)cc1)C(=O)N[C@@H](CCC(N)=O)C(=O)N[C@@H](CCCCN)C(=O)N1CCC[C@@H]1C(=O)N1CCC[C@H]1C(=O)N[C@@H](CCC(=O)O)C(=O)N[C@@H](Cc1c[nH]cn1)C(=O)N[C@@H](C)C(=O)N2
B9: cyclo(-Lys-His-Ala-Cys-His-Gly-^DPro-Trp-Thr-Ile-Cys-Tyr-Gln-Lys-^DPro-Pro-) (peptide)
peptide: cyclo(KHACHG[dP]WTICYQK[dP]P)
modifications: disulfide 4-11
SMILES: CC[C@H](C)[C@@H]1NC(=O)[C@H]([C@@H](C)O)NC(=O)[C@H](Cc2c[nH]c3ccccc23)NC(=O)[C@H]2CCCN2C(=O)CNC(=O)[C@H](Cc2c[nH]cn2)NC(=O)[C@@H]2CSSC[C@H](NC1=O)C(=O)N[C@@H](Cc1ccc(O)cc1)C(=O)N[C@@H](CCC(N)=O)C(=O)N[C@@H](CCCCN)C(=O)N1CCC[C@@H]1C(=O)N1CCC[C@H]1C(=O)N[C@@H](CCCCN)C(=O)N[C@@H](Cc1c[nH]cn1)C(=O)N[C@@H](C)C(=O)N2
B10: cyclo(-Thr-His-Ala-Cys-Trp-Gly-^DPro-Trp-Thr-Ile-Cys-Tyr-Gln-Lys-^DPro-Pro-) (peptide)
peptide: cyclo(THACWG[dP]WTICYQK[dP]P)
modifications: disulfide 4-11
SMILES: CC[C@H](C)[C@@H]1NC(=O)[C@H]([C@@H](C)O)NC(=O)[C@H](Cc2c[nH]c3ccccc23)NC(=O)[C@H]2CCCN2C(=O)CNC(=O)[C@H](Cc2c[nH]c3ccccc23)NC(=O)[C@@H]2CSSC[C@H](NC1=O)C(=O)N[C@@H](Cc1ccc(O)cc1)C(=O)N[C@@H](CCC(N)=O)C(=O)N[C@@H](CCCCN)C(=O)N1CCC[C@@H]1C(=O)N1CCC[C@H]1C(=O)N[C@@H]([C@@H](C)O)C(=O)N[C@@H](Cc1c[nH]cn1)C(=O)N[C@@H](C)C(=O)N2
B11: cyclo(-His-Tyr-Ala-Cys-Trp-Gly-^DPro-Trp-Thr-Ile-Cys-Tyr-Gln-Lys-^DPro-Pro-) (peptide)
peptide: cyclo(HYACWG[dP]WTICYQK[dP]P)
modifications: disulfide 4-11
SMILES: CC[C@H](C)[C@@H]1NC(=O)[C@H]([C@@H](C)O)NC(=O)[C@H](Cc2c[nH]c3ccccc23)NC(=O)[C@H]2CCCN2C(=O)CNC(=O)[C@H](Cc2c[nH]c3ccccc23)NC(=O)[C@@H]2CSSC[C@H](NC1=O)C(=O)N[C@@H](Cc1ccc(O)cc1)C(=O)N[C@@H](CCC(N)=O)C(=O)N[C@@H](CCCCN)C(=O)N1CCC[C@@H]1C(=O)N1CCC[C@H]1C(=O)N[C@@H](Cc1c[nH]cn1)C(=O)N[C@@H](Cc1ccc(O)cc1)C(=O)N[C@@H](C)C(=O)N2
B12: cyclo(-Tyr-His-Ala-Cys-Trp-Gly-^DPro-Trp-Thr-Ile-Cys-Tyr-Thr-Lys-^DPro-Pro-) (peptide)
peptide: cyclo(YHACWG[dP]WTICYTK[dP]P)
modifications: disulfide 4-11
SMILES: CC[C@H](C)[C@@H]1NC(=O)[C@H]([C@@H](C)O)NC(=O)[C@H](Cc2c[nH]c3ccccc23)NC(=O)[C@H]2CCCN2C(=O)CNC(=O)[C@H](Cc2c[nH]c3ccccc23)NC(=O)[C@@H]2CSSC[C@H](NC1=O)C(=O)N[C@@H](Cc1ccc(O)cc1)C(=O)N[C@@H]([C@@H](C)O)C(=O)N[C@@H](CCCCN)C(=O)N1CCC[C@@H]1C(=O)N1CCC[C@H]1C(=O)N[C@@H](Cc1ccc(O)cc1)C(=O)N[C@@H](Cc1c[nH]cn1)C(=O)N[C@@H](C)C(=O)N2
B13: cyclo(-Tyr-His-Lys-Cys-His-Gly-^DPro-Trp-Thr-Ile-Cys-Tyr-Glu-Lys-^DPro-Glu-) (peptide)
peptide: cyclo(YHKCHG[dP]WTICYEK[dP]E)
modifications: disulfide 4-11
SMILES: CC[C@H](C)[C@@H]1NC(=O)[C@H]([C@@H](C)O)NC(=O)[C@H](Cc2c[nH]c3ccccc23)NC(=O)[C@H]2CCCN2C(=O)CNC(=O)[C@H](Cc2c[nH]cn2)NC(=O)[C@@H]2CSSC[C@H](NC1=O)C(=O)N[C@@H](Cc1ccc(O)cc1)C(=O)N[C@@H](CCC(=O)O)C(=O)N[C@@H](CCCCN)C(=O)N1CCC[C@@H]1C(=O)N[C@@H](CCC(=O)O)C(=O)N[C@@H](Cc1ccc(O)cc1)C(=O)N[C@@H](Cc1c[nH]cn1)C(=O)N[C@@H](CCCCN)C(=O)N2
B14: cyclo(-Tyr-His-Ala-Cys-His-Gly-^DAla-Trp-Thr-Ile-Cys-Tyr-Gln-Lys-^DPro-Pro-) (peptide)
peptide: cyclo(YHACHG[dA]WTICYQK[dP]P)
modifications: disulfide 4-11
SMILES: CC[C@H](C)[C@@H]1NC(=O)[C@H]([C@@H](C)O)NC(=O)[C@H](Cc2c[nH]c3ccccc23)NC(=O)[C@@H](C)NC(=O)CNC(=O)[C@H](Cc2c[nH]cn2)NC(=O)[C@@H]2CSSC[C@H](NC1=O)C(=O)N[C@@H](Cc1ccc(O)cc1)C(=O)N[C@@H](CCC(N)=O)C(=O)N[C@@H](CCCCN)C(=O)N1CCC[C@@H]1C(=O)N1CCC[C@H]1C(=O)N[C@@H](Cc1ccc(O)cc1)C(=O)N[C@@H](Cc1c[nH]cn1)C(=O)N[C@@H](C)C(=O)N2

Target: T1, Formyl-Peptide Receptor 1
Assay: cell-based or functional assay

β-Arrestin IC50 [µM]	Binder
0.404	B1
0.213	B2
0.184	B3
0.598	B4
0.189	B5
0.342	B6
0.278	B7
0.131	B8
0.59	B9
0.294	B10
0.735	B11
0.202	B12
0.169	B13
0.458	B14

— patent publication US9957297B2, “Template-fixed peptidomimetics as inhibitors of FPR1” (POLYPHOR AG, priority 2011, dated 2018)
